{
  "source": "paper PMC3350560",
  "data": [
    {"molecular_target": "rCKAP4 (recombinant CKAP4 extracellular domain) (UniProt Q07065 126-501)", "sequence (Q07065 126-501)": "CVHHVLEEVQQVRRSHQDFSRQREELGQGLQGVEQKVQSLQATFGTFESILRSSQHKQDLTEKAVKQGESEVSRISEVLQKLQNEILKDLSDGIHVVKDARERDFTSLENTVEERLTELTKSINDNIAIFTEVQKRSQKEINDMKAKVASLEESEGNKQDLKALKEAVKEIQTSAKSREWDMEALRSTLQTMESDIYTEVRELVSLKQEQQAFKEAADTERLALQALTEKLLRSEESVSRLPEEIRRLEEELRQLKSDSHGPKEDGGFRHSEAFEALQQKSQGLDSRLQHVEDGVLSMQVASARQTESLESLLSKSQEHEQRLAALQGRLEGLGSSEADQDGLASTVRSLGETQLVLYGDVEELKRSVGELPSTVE", "assay": "EMSA", "values": [
      {"binder": "probe D (oligo D) (dsDNA) DNA 1: CAATGATTTGCGTTTTAG DNA 2: CTAAAACGCAAATCATTG", "binding result": "no binding"},
      {"binder": "probe A (oligo A) (dsDNA) DNA 1: GATTTGCGTTTTAGAGGCTATAGGCTCTTGAAACTCTCCA DNA 2: TGGAGAGTTTCAAGAGCCTATAGCCTCTAAAACGCAAATC", "binding result": "binds"},
      {"binder": "probe C (oligo C) (dsDNA) DNA 1: GGCAAACAGCAGGAATTCCTAAAAAATTCGAAAAGGTTTCT DNA 2: AGAAACCTTTTCGAATTTTTTAGGAATTCCTGCTGTTTGCC", "binding result": "no binding"}
    ]}
  ]
}
